Reference: paper PMC6293271, “Bactericidal/Permeability-Increasing Protein Is an Enhancer of Bacterial Lipoprotein Recognition” (Frontiers in Immunology, 2018)

Columns and labels:
PBMCs = experiment: Stimulation of human PBMCs, cytokine ELISA of supernatants; type: cell-based; conditions: for TNFα secretion: 18 h
Protocol: After informed consent, blood was drawn from healthy male volunteers using heparinized blood collection tubes (Li-Heparin-Gel-Monovette, Sarstedt, Nümbrecht, Germany) and diluted in RPMI 1640 (Biochrom, Berlin, Germany) at a ratio of 1:1.5. The blood was centrifuged in leucosep tubes containing Ficoll® Paque plus (Oxford Immunotec, Abingdon, Great Britian) at 1,000 × g for 10 min. The interphase containing the leukocytes was collected and subsequently washed twice with RPMI 1640. The pellet was resuspended in AIM V® Medium (Thermo Fisher Scientific, Waltham, MA, USA), counted and cultivated in 96-well plates for 4 h (1 × 10^5/100 μl). Then cells were stimulated with the indicated compounds in the presence or absence of BPI. The supernatants were collected after 18 h for determination of cytokine concentration by ELISA according to the manufacturer's instructions (OptEIA^TM Human TNFα ELISA Set and OptEIA^TM Human IL6 ELISA, BD Biosciences, Heidelberg, Germany; DuoSet® ELISA human CXCL8/IL-8, R&D, Minneapolis, MN, USA).

[1] = system: HEK293T cells expressing TLR2 and CD14; experiment: Stimulation of HEK293T cells transfected with human TLR2 and CD14, IL-8 ELISA; type: cell-based; conditions: HEK293T expressing TLR2 and CD14, (R)-Pam3CSK4 ± BPI, 24 h
Protocol: HEK293T cells were transfected using the calcium phosphate mediated method according to a published protocol ([45]). Transfections were performed using plasmid vectors for human TLR2 and human CD14 (both a kind gift of Carsten Kirschning, University of Duisburg-Essen, Germany) at concentrations of 0.4 and 0.05 μg/ml, respectively. A GFP encoding plasmid (0.4 μg/ml) was used as control. For stimulation, transfected HEK293T cells were cultured at 2 × 10^5 cells/ml in 96-well plates and stimulated with (R)-Pam3CSK4 ± BPI. After 24 h, supernatants were collected and analyzed for secretion of IL-8 by ELISA (DuoSet® ELISA human CXCL8/IL-8, R&D, Minneapolis, MN, USA).

B1: rBPI: recombinant human BPI (aa 32-487) with C-terminal FLAG Tag expressed in HEK293T cells (protein)
chain: VNPGVVVRISQKGLDYASQQGTAALQKELKRIKIPDYSDSFKIKHLGKGHYSFYSMDIREFQLPSSQISMVPNVGLKFSISNANIKISGKWKAQKRFLKMSGNFDLSIEGMSISADLKLGSNPTSGKPTITCSSCSSHINSVHVHISKSKVGWLIQLFHKKIESALRNKMNSQVCEKVTNSVSSELQPYFQTLPVMTKIDSVAGINYGLVAPPATTAETLDVQMKGEFYSENHHNPPPFAPPVMEFPAAHDRMVYLGLSDYFFNTAGLVYQEAGVLKMTLRDDMIPKESKFRLTTKFFGTFLPEVAKKFPNMKIQIHVSASTPPHLSVQPTGLTFYPAVDVQAFAVLPNSSLASLFLIGMHTTGSMEVSAESNRLVGELKLDRLLLELKHSNIGPFPVELLQDIMNYIVPILVLPRVNEKLQKGFPLPTPARVQLYNVVLQPHQNFLLFGADVVYK
modifications: labelled with NT647 (NHS labelling kit) in the MST experiments only; left off: HA signal peptide, N-terminal, state not stated | FLAG, C-terminal, state not stated
notes: recombinant human BPI (aa 32-487) with C-terminal FLAG Tag expressed in HEK293T cells
TNFα secretion (PBMCs; PBMCs stimulated with (R)-FSL-1, increasing rBPI concentration): gradually enhanced | TNFα secretion (PBMCs; PBMCs stimulated with (R)-Pam3CSK4, increasing rBPI concentration): gradually enhanced | TNFα, IL-6, and IL-8 secretion (PBMCs; PBMCs stimulated with lysate of S. pneumoniae D39Δcps, seven donors, BPI 500 nM): remarkable increase | TNFα, IL-6, and IL-8 secretion (PBMCs; PBMCs stimulated with lysates of S. aureus 113, BPI 500 nM): also increased | secretion of TNFα (PBMCs; PBMCs, BPI incubated with LTA SPΔlgt compared to LTA SPΔlgt alone): increased secretion of TNFα | enhancement of immune stimulation of bLPs (IL-8) [1]: not sufficient to enhance
